# Laboratory results: publication doi:10.1101/2023.02.21.529347v1
# Tests used:
# Experiment in all cases: purified protein
# [1] = substrate: CC1=CCCC1=O; settings: co-substrate F420H2; apparent value
# [2] = substrate: CC1=CCCCC1=O; settings: co-substrate F420H2; apparent value
# [3] = substrate: CC1=CC(=O)CC1; settings: co-substrate F420H2; apparent value
# [4] = substrate: CC1=CC(=O)CCC1; settings: co-substrate F420H2, apparent value
# [5] = substrate: C=C(C)[C@@H]1CC=C(C)C(=O)C1; settings: co-substrate F420H2; apparent value
# [6] = substrate: CC1=CC(=O)CC(C)(C)C1=O; settings: co-substrate F420H2; apparent value; fit with substrate inhibition
# [7] = substrate: C=C(C)[C@H]1CC=C(C)C(=O)C1; settings: co-substrate F420H2; apparent value
# [8] = substrate: CC1(C)[C@H]2CC=C(C=O)[C@@H]1C2; settings: co-substrate F420H2; apparent value
protein,measurement,setting,value
MSMEG_2027 (Mycolicibacterium smegmatis MC2 155) (protein) MTDAELSPTDWVREQTERILEQGTTDGVHVLDRPIVLFTTTGAKSGKKRYVPLMRVEENGKYAMVASKGGDPKHPSWYFNVKANPTVSVQDGDKVLPDRTARELEGEEREHWWKLAVEAYPPYAEYQTKTDRLIPVFIVE,Km,[1],1000 ± 130 µM
same,kcat,[1],0.55 ± 0.02 s⁻¹
same,Km,[2],2560 ± 480 µM
same,kcat,[2],0.62 ± 0.05 s⁻¹
same,Km,[3],120 ± 50 µM
same,kcat,[3],0.01 ± 0.001 s⁻¹
same,Km,[4],4290 ± 3460 µM
same,kcat,[4],1.10 ± 0.41 s⁻¹
same,Km,[5],1290 ± 320 µM
same,kcat,[5],0.11 ± 0.008 s⁻¹
same,Km,[6],3880 ± 680 µM
same,kcat,[6],0.39 ± 0.05 s⁻¹
same,Km,[7],1300 ± 280 µM
same,kcat,[7],0.09 ± 0.006 s⁻¹
same,Km,[8],310 ± 30 µM
same,kcat,[8],0.74 ± 0.017 s⁻¹
MSMEG_2850 (Mycolicibacterium smegmatis MC2 155) (protein) MTEAIDWDQMNNQVIKEFRETGGKAGGLFEGSPLVLVHHTGAKSGKQRIAPLVPLLDGDRIYIFGSKGGADSHPDWYHNLVANPDTVVELGTETFPVKARVLTGAERDEIYAKQVAVAPQFGDYQRKTTRVIPVVELQRV,Km,[1],7670 ± 3210 µM
same,kcat,[1],0.16 ± 0.04 s⁻¹
same,Km,[2],9180 ± 2220 µM
same,kcat,[2],1.59 ± 0.23 s⁻¹
same,Km,[3],4300 ± 740 µM
same,kcat,[3],0.10 ± 0.008 s⁻¹
same,Km,[4]; fit with substrate inhibition,6730 ± 6840 µM
same,kcat,[4]; fit with substrate inhibition,4.02 ± 3.30 s⁻¹
same,Km,[5],1620 ± 180 µM
same,kcat,[5],0.08 ± 0.003 s⁻¹
same,Km,[6],100 ± 8 µM
same,kcat,[6],1.35 ± 0.028 s⁻¹
same,Km,[7],2070 ± 390 µM
same,kcat,[7],0.05 ± 0.004 s⁻¹
same,Km,[8],580 ± 70 µM
same,kcat,[8],0.16 ± 0.005 s⁻¹
